# According to patent publication US9539306B2, “Anti-tumor drug, medicament, composition, and use thereof” (GENE SIGNAL INTERNATIONAL SA, priority 2007, dated 2017):
# B1: 168A-T2: fragment of the extracellular domain of protein 168A, SEQ ID NO:4 (108 amino acids), recombinant from E. coli, 18 kD (protein, listed as Homo sapiens)
# chain: MAFDVSWFAVHSFGLDKAPVLLSSLDRKGIVTTSRRDWKSDLSLERVSVLEFLLQVHGSEDQDFGNYYCSVTPWVKSPTGSWQKEAEIHSKPVFITVKMDVLNAFKYP
# Tests used:
# [1] = system: CALU-6 cells (human lung carcinoma); assay: Human non-small cell lung cancer (CALU-6) xenograft model, tumor growth; format: in vivo, Swiss Nude mice; set-up: Growth inhibition based on T/C ratio, T/C ratio (%): concentration or dose not given beside the values; conditions: for MTV (mean tumor volume): IP Q2DX8, 168A-T2 15 mg/kg, CDDP 5 mg/kg; for MRTV (mean relative tumor volume): ratio of MTV at time t to volume at D12; for Growth inhibition based on T/C ratio, T/C ratio (%): versus vehicle group 1
# Method: CALU-6 cells were cultured as adherent cells in complete EMEM medium (Ref. CM1MEM18-01, batch No. 462502, Eurobio, France) 10% fetal calf serum (FCS; Ref. CVFSVF00-01, batch No. S13021, Eurobio, France) under a 37° C., 5% CO2 humidified atmosphere. They were amplified in 75 cm^2-flasks to reach 90×10^6 cells.
# At D0, CALU-6 cells (human lung carcinoma) were collected from 75 cm^2-flasks by removing the medium and adding 3 ml of trypsine-EDTA (Ref. CEZTDA00-0U, batch No. 633920, Eurobio, France). After 5 min of incubation at 37° C., cells had detached from the plastic and the enzymatic reaction was stopped by adding 3 ml of EMEM medium containing 10% fetal calf serum. Cells were then centrifuged at 700 g for 5 min at room temperature. They were resuspended in serum-free EMEM culture medium. Cells were counted and viability assessment by Trypan Blue exclusion (Ref. CSTCOL03-0U, batch No. 434511, Eurobio, France). The number of viable CALU-6 cells was >99%. The number of cells was then adjusted to 25×10^6 cells/ml in serum-free medium.
# Thirty healthy female Swiss Nude mice were anesthetized by IP injection of Ketamine-Xylazine (80 mg/kg-12 mg/kg; Ref. K-113, Sigma, France). CALU-6 cells 5×10^6 cells/mouse in 200 μl of serum-free medium) were then implanted subcutaneously in the right flank of each mouse.
# At D12 post-implantation of the CALU-6 cells, the thirty mice were randomized into […]. Tumor volumes had reached 54 to 296 mm^3 and mean tumor volumes were not statistically different between groups after randomization.
# Injections in groups 1, 2, 3 and 4 were performed according to the schedules Q2DX8, i.e. 1 quantity every two days, eight times.
# Ketamine/Xylazine (80 mg/kg-12 mg/kg; Ref. K-113, Sigma, France) was used to anaesthetize the animals before sacrifice by cervical dislocation. For all animals, the tumor size was measured twice a week with calipers. The tumor volume (mm^3) was measured according to the formula: (length×width^2)/2.
# • Tumor growth curves were drawn using the mean tumor volumes (MTV), • Mean Relative tumor volume (MRTV) was calculated as the ratio between the MTV at time t and the volume at the time of injection (t=D12), • Tumor growth inhibition (T/C, %) was evaluated as the ratio of the median tumor volumes of treated groups versus vehicle group.
# Statistical analyses of tumor volumes (TV), time to reach ‘TV’, tumor-doubling time (DT), relative tumor volume (RTV) and tumor growth inhibition (T/C) were performed for all groups. Data are expressed as mean±SD. Groups of data were normally distributed. Univariate analysis were performed to assess differences between groups. Statistical significance was then determined using the Student's t test. A P<0.05 was considered as statistically significant. The Statistical analysis was performed using XLSTAT (Addinsoft, France).
# HUVEC cells = assay: Inhibition of endothelial cell proliferation in vitro (MTT); format: cell-based, human; conditions: comparison with literature (Binetruy-Tournaire et al.)
# Method: HUVEC cells were cultured to confluency in complete EGM2-MV medium (Cambrex) at 37° C. and in 5% CO2 humidified atmosphere. Cells were then collected by trypsine-EDTA digestion (Versene, Eurobio). After 5 min, the enzymatic reaction was stopped by adding 3 ml of the culture medium containing 5% FCS. Cells were then centrifuged at 220 g for 10 min at room temperature, washed twice with 5 ml of culture medium, suspended in complete culture medium, counted and adjusted to 50 000 cells/ml. One hundred μL per well were then distributed to a 96-well cell culture grade micro-plate (5 000 cells/well) and incubated with different concentrations of the purified protein 168A-T2 in Tris-HCl 20 mM buffer (pH 8), containing 150 mM NaCl and urea 2M; this buffer was used as control.
# After 42 hrs at 37° C., cell proliferation was measured using thiazolyl blue tetrazolium bromide (MTT) method. Briefly, MTT (Sigma) was dissolved in PBS at 5 mg/ml, the solution was filtered (0.22 μm) and 10 μl were added to each well of the 96-well micro-plates. […] The optical density (OD) at 570 nm was then measured using μQuant micro-plate reader (Bio-Tek Instrument gmbh, Colmar, France) coupled to the KC4 (Bio-Tek) software. […]
# HUVEC [2] = assay: In vitro angiogenesis of HUVEC induced by FGF2 and VEGF on Matrigel; format: cell-based, human; conditions: 3.5, 6.9, 13.6 μg/mL (0.2, 0.4, 0.8 μM)
# Method: The purified proteins 168A-T2 was tested in vitro on angiogenesis of HUVEC induced by FGF2 and VEGF on Matrigel.
# 24 wells plates were prepared with 250 μL of BD Matrigel™/well and then incubated 30 minutes in incubator. HUVEC cells were then prepared as described in example 2 and 70 000 cells (in 0.5 mL) were seeded per well and incubated with different concentrations of the purified protein 168A-T2, in Tris-HCl 20 mM buffer (pH 8), containing 150 mM NaCl and urea 2M; this buffer was used as control: • FIG. 2a: Control (Buffer Urea 2M) • FIG. 2b: 168A-T2 3.5 μg/mL (0.2 μM) • FIG. 2c: 168A-T2 6.9 μg/mL (0.4 μM) • FIG. 2d: 168A-T2 13.6 μg/mL (0.8 μM)
# HUVEC [3] = assay: Migration of human endothelial cells (wound assay); format: cell-based; conditions: 12, 17, 23 μg/mL (0.7, 1, 1.35 μM); 18 hours
# Method: Cell migration was tested by the wound assay described by Sato and Rifkin (J Cell Biol. 1988; 107:1199) with few modifications. HUVEC grown in growth medium EGM-2MV (Cambrex) were seeded in 24-well plates at 80 000 cells per well in 500 μL of growth medium and grown to confluence at 37° C. in a humidified atmosphere containing 5% CO2. Cells were scrapped with a plastic tip on one line only. After wounding, the culture medium was changed for fresh medium (control, FIG. 3a) or fresh medium supplemented with: • FIG. 3b: 168A-T2 12 μg/mL (0.7 μM) • FIG. 3c: 168A-T2 17 μg/mL (1 μM) • FIG. 3d: […] 23 μg/mL (1.35 μM)
# After 18 hours of culture, cells were observed and photographed under the inverted microscope (Analysis, Olympus, Rungis, France).
# [4] = system: kidney cancer line (BizX); assay: Inhibition of kidney cancer cell line proliferation in vitro (MTT); format: cell-based; conditions: 48 hours, maximum over tested concentrations
# Method: (§1) BizX cell preparation of 50000 cells/mL was prepared in complete medium. In a 96 wells plate, […] of the cell preparation was distributed in each well and then incubated with different concentrations of 168A-T2 (each concentration was tested in triplicate). After 48 hours of incubation at 37° C., […] of MTT ([…] in water) were added in each well. After 3 hours of incubation at 37° C., the culture medium was eliminated and […] of DMSO were added to solubilize MMT crystals. The optical density (OD) at 570 nm was then measured using μQuant micro-plate reader (Bio-Tek Instrument gmbh, Colmar, France) coupled to the KC4 (Bio-Tek) software. The OD was corrected by subtracting blank-well OD values (the OD values obtained from wells without cells), and the inhibition of cell proliferation was measured relative to control (OD obtained from wells with untreated kidney tumor cells representing the maximal proliferative response, i.e. 100%).
# lung cancer line (Calu6) = assay: Inhibition of lung cancer cell line proliferation in vitro (MTT); format: cell-based, human; conditions: 48 hours, maximum over tested concentrations
# Method: as §1
# Calu6 cells were cultured and treated as described in example 5.
molecule,measurement,setting,value
"N.N.[Cl][Pt][Cl] [Cisplatin, cis-diamineplatinum(II) dichloride, reference compound]",MTV (mean tumor volume),[1]; D12 (start of treatment),142.60 mm^3
same,MTV (mean tumor volume),[1]; D14,351.15 mm^3
same,MTV (mean tumor volume),[1]; D16,291.29 mm^3
same,MTV (mean tumor volume),[1]; D18,329.18 mm^3
same,MTV (mean tumor volume),[1]; D20,386.84 mm^3
same,MTV (mean tumor volume),[1]; D22,470.59 mm^3
same,MTV (mean tumor volume),[1]; D24,595.00 mm^3
same,MTV (mean tumor volume),[1]; D26,527.98 mm^3
same,MTV (mean tumor volume),[1]; D28,742.44 mm^3
B1,potency relative to anti-VEGF mAb and/or VEGF receptor (KDR)-based identified peptides,HUVEC cells,at least 600 fold
same,inhibition of in vitro angiogenesis (capillary tube formation),HUVEC [2],inhibited in vitro angiogenesis in a dose-dependent manner
same,inhibition of human endothelial cell migration,HUVEC [3],inhibited human endothelial cells migration in a dose dependent manner
same,inhibition of proliferation of kidney cancer line (BizX),[4],up to 20%
same,inhibition of proliferation of lung cancer line (Calu6),lung cancer line (Calu6),up to 40%
same,MRTV (mean relative tumor volume),[1]; D12 (reference time),1
same,MTV (mean tumor volume),[1]; D12 (start of treatment),159.22 mm^3
same,MTV (mean tumor volume),[1]; D14,181.94 mm^3
same,MRTV (mean relative tumor volume),[1]; D14,1.15
same,"Growth inhibition based on T/C ratio, T/C ratio (%)",[1]; D14,37%
same,MTV (mean tumor volume),[1]; D16,264.20 mm^3
same,MRTV (mean relative tumor volume),[1]; D16,1.93
same,"Growth inhibition based on T/C ratio, T/C ratio (%)",[1]; D16,39%
same,MTV (mean tumor volume),[1]; D18,322.99 mm^3
same,MRTV (mean relative tumor volume),[1]; D18,2.08
same,"Growth inhibition based on T/C ratio, T/C ratio (%)",[1]; D18,17%
same,MTV (mean tumor volume),[1]; D20,391.90 mm^3
same,MRTV (mean relative tumor volume),[1]; D20,2.60
same,"Growth inhibition based on T/C ratio, T/C ratio (%)",[1]; D20,29%
same,MTV (mean tumor volume),[1]; D22,485.42 mm^3
same,MRTV (mean relative tumor volume),[1]; D22,3.47
same,"Growth inhibition based on T/C ratio, T/C ratio (%)",[1]; D22,16%
same,MTV (mean tumor volume),[1]; D24,642.24 mm^3
same,MRTV (mean relative tumor volume),[1]; D24,4.83
same,"Growth inhibition based on T/C ratio, T/C ratio (%)",[1]; D24,15%
same,MTV (mean tumor volume),[1]; D26,529.95 mm^3
same,MRTV (mean relative tumor volume),[1]; D26,4.14
same,"Growth inhibition based on T/C ratio, T/C ratio (%)",[1]; D26,45%
same,MTV (mean tumor volume),[1]; D28,615.96 mm^3
same,MRTV (mean relative tumor volume),[1]; D28,4.51
same,"Growth inhibition based on T/C ratio, T/C ratio (%)",[1]; D28,45%
